What was measured:
[1] = test system: LacZ-complemented pem1Δ/pem2Δ S. cerevisiae; test: Growth inhibition of complemented yeast; assay type: cell-based, Saccharomyces cerevisiae; conditions: medium with choline
Procedure: (§1) To determine the effect of PMT inhibitors on the growth of PMT- and LacZ-complemented pem1Δpem2Δ S. cerevisiae, the yeast cells were first starved of choline as described above, and the cells were diluted to an OD600 of ~0.6. The PMT-complemented yeast cells were cultured in SG medium (3.4g/L yeast nitrogen base without amino acids, 2% galactose, 30 mg/L histidine, 100 mg/L leucine, 100 mg/L adenine, and 50 mg/L tryptophan) supplemented with 1 mM ethanolamine hydrochloride, while the LacZ-complemented yeast cells were cultured in SG medium supplemented with 1 mM choline chloride. Compounds that depicted cross-inhibitory activity against PMT proteins in vitro were added at various concentrations to the cultures. As a negative control, DMSO (at a final concentration not exceeding 2% [vol/vol]) was added to yeast cultures designated control cultures. The cultures were incubated at 30°C with shaking at 275 rpm for 4 days. On a daily basis during the course of culture, 200-μL portions of culture aliquots were taken, and their OD600s were measured using a microplate reader. In preliminary work, we had observed that the growth of PMT- and LacZ-complemented pem1Δpem2Δ S. cerevisiae plateaued at 3 to 4 days of culture. Therefore, to determine the inhibitory effect of nematode PMT inhibitors on the growth of PMT- and LacZ-complemented pem1Δpem2Δ S. cerevisiae, measurements taken on day 3 were used. The results were presented as percentage of growth rate using the following formula: PGR = growth rate (plus inhibitor)/growth rate (minus inhibitor) × 100 where the percent growth rate (PGR) is the growth rate of inhibitor-treated PMT- or LacZ- complemented Pem1Δpem2Δ S. cerevisiae, considering the growth rate of untreated PMT- or LacZ- complemented Pem1Δpem2Δ S. cerevisiae is 100%; the growth rate = ΔA600^Day 3/ΔA600^Day 0; ΔA600^Day 0 is the absolute value of A600 of PMT- or LacZ- complemented pem1Δ/pem2Δ S. cerevisiae at day 0, which equals the A600 of the culture minus the A600 of the growth medium only; ΔA600^Day 3 is the absolute value of the A600 of PMT- or LacZ complemented pem1Δ/pem2Δ S. cerevisiae at day 3, which equals the A600 of the culture at day 3 minus the A600 of growth medium only; the growth rate (plus inhibitor) is the growth rate of PMT- or -LacZ complemented pem1Δpem2Δ S. cerevisiae in the presence of test compound; and the growth rate (minus inhibitor) is the growth rate of the PMT- or LacZ complemented pem1Δ/pem2Δ S. cerevisiae in the absence of test compound, but with a volume of DMSO equal to that of compound added in the treated culture. The dose-response curves were generated with GraphPad Prism software and IC50 concentrations of the compounds in PMT- and LacZ-complemented yeast cells derived.

[2] = test system: PMT-complemented mutant yeast; test: Growth inhibition of complemented yeast (statement on PMT-complemented strains together); assay type: cell-based, Saccharomyces cerevisiae; conditions: various concentrations
Procedure: as §1

[3] = target: HcPMT1 (Haemonchus contortus, UniProt U5HK46); test: PMT enzyme kinetics, fluorescence methyltransferase assay; assay type: biochemical; conditions: on phosphoethanolamine
Procedure: (§2) We customized a commercial methyltransferase HT activity assay kit (ENZO) for use of recombinant PMT proteins as enzymes, S-adenosyl-L-methionine (SAM) as the methyl donor, and PE as the substrate, as reported previously ([27]). […] Briefly, the reaction mixture contained 2.5 μL of the kit SAM-free methyltransferase reaction buffer, 3 μL of 10 mM PE solution (pH 7.5), 15 μL of 1 mM SAM solution (pH 7.8), and 1× transferase assay buffer to a final volume of 25 μL. Various concentrations (25-μL total volume) of recombinant PMT protein were added to reactions.
(§3) To determine the enzyme kinetic parameters on SAM, fixed concentrations of PMT recombinant proteins (between 15 and 100 ng/μL, depending on the derived optimal concentration) and PE (200 μM) were used in the reactions, with various concentrations of SAM (0 to 160 μM). On the other hand, to determine the enzyme kinetic parameters on PE, fixed concentrations of PMT recombinant proteins (between 15 and 100 ng/μL, depending on the derived optimal concentration) and SAM (100 μM) were used, with various concentrations of PE (0 to 250 μM).
(§4) For normalization, instead of purified protein, 25 μL of 100 μM S-(5′-adenosyl)-L-homocysteine (SAH) as a positive control, 25 μL of dialysis buffer as a negative control, and 25 μL of 1× transferase assay buffer as a blank control were added to the respective reaction mixtures. The reactions were prepared in triplicate wells using black flat-bottomed 96-well plates. Detection buffer (100 μL) was added into each reaction, yielding a final reaction volume of 150 μL. The plates were covered in aluminum foil and incubated at room temperature with shaking for 30 min, and fluorescence read at 380EX/520EM using a SpectraMax Gemini EM microplate reader (Molecular Devices). Sample readouts were normalized with positive and negative controls.

[4] = target: TcPMT (Toxocara canis, UniProt A0A0B2VTW9); test: as above; assay type: biochemical; conditions: on phosphoethanolamine
Procedure: as §2, §3, §4

[5] = target: AcPMT1 (Ancylostoma duodenale, UniProt A0A0C2DEB6); test: as above; assay type: biochemical; conditions: on phosphoethanolamine
Procedure: as §2, §3, §4

[6] = target: AsPMT (Ascaris suum, UniProt F1L4B9); test: as above; assay type: biochemical; conditions: on phosphoethanolamine
Sequence of AsPMT (F1L4B9 entry or part of it): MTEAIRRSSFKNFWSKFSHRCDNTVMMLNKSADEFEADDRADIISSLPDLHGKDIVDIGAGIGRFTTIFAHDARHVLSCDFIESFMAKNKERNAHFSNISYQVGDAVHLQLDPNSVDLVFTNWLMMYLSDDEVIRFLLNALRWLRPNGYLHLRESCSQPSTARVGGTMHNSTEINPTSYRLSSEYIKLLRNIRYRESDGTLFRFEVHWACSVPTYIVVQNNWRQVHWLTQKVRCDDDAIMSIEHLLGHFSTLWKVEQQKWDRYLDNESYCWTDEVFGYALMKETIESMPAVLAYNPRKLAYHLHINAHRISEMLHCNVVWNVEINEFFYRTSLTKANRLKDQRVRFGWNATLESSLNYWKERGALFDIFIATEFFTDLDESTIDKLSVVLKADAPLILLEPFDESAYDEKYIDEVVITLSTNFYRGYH
Procedure: as §2, §3, §4

[7] = target: DvPMT1 (Dictyocaulus viviparus, UniProt A0A0D8Y714); test: as above; assay type: biochemical; conditions: on phosphoethanolamine
Procedure: as §2, §3, §4

[8] = target: OdPMT (Oesophagostomum dentatum, UniProt A0A0B1TAL6); test: as above; assay type: biochemical; conditions: on phosphoethanolamine
Procedure: as §2, §3, §4

[9] = substrate: C[S+](CC[C@H](N)C(=O)[O-])C[C@H]1O[C@@H](n2cnc3c(N)ncnc32)[C@H](O)[C@@H]1O; test: as above; assay type: biochemical, Dictyocaulus viviparus; conditions: other: on S-adenosyl-L-methionine
Procedure: as §2, §3, §4

[10] = substrate: C[S+](CC[C@H](N)C(=O)[O-])C[C@H]1O[C@@H](n2cnc3c(N)ncnc32)[C@H](O)[C@@H]1O; test: as above; assay type: biochemical, Toxocara canis; conditions: other: on S-adenosyl-L-methionine
Procedure: as §2, §3, §4

[11] = substrate: C[S+](CC[C@H](N)C(=O)[O-])C[C@H]1O[C@@H](n2cnc3c(N)ncnc32)[C@H](O)[C@@H]1O; test: as above; assay type: biochemical, Ancylostoma duodenale; conditions: other: on S-adenosyl-L-methionine
Procedure: as §2
(§5) To determine the enzyme kinetic parameters on SAM, fixed concentrations of PMT recombinant proteins (between 15 and 100 ng/μL, depending on the derived optimal concentration) and PE (200 μM) were used in the reactions, with various concentrations of SAM (0 to 160 μM). […]
(§6) For normalization, instead of purified protein, 25 μL of 100 μM S-(5′-adenosyl)-L-homocysteine (SAH) as a positive control, 25 μL of dialysis buffer as a negative control, and 25 μL of 1× transferase assay buffer as a blank control were added to the respective reaction mixtures. […] The plates were covered in aluminum foil and incubated at room temperature with shaking for 30 min, and fluorescence read at 380EX/520EM using a SpectraMax Gemini EM microplate reader (Molecular Devices). Sample readouts were normalized with positive and negative controls.

[12] = substrate: C[S+](CC[C@H](N)C(=O)[O-])C[C@H]1O[C@@H](n2cnc3c(N)ncnc32)[C@H](O)[C@@H]1O; test: as above; assay type: biochemical, Oesophagostomum dentatum; conditions: other: on S-adenosyl-L-methionine
Procedure: as §2, §3, §4

[13] = substrate: C[S+](CC[C@H](N)C(=O)[O-])C[C@H]1O[C@@H](n2cnc3c(N)ncnc32)[C@H](O)[C@@H]1O; test: as above; assay type: biochemical, Haemonchus contortus; conditions: other: on S-adenosyl-L-methionine
Procedure: as §2, §5, §6

Molecule: CC[C@H]1NC(=O)[C@@H](NC(=O)c2ncccc2O)[C@@H](C)OC(=O)[C@H](c2ccccc2)NC(=O)[C@@H]2CC(=O)CCN2C(=O)[C@H](Cc2ccccc2)N(C)C(=O)[C@@H]2CCCN2C1=O [NSC177858]
- effect on LacZ-expressing mutant yeast [1]: no or negligible inhibitory effect
- effect on the growth of PMT-complemented mutant yeast [2]: concentration-dependent inhibitory effect

Molecule: NCCOP(=O)(O)O [phosphoethanolamine]
- Km [3]: 73.4 ± 54.9 µM
- kcat [3]: 1,066.30 ± 72.70 min^−1
- Km [4]: 85 ± 77.8 µM
- kcat [4]: 624.70 ± 221.90 min⁻¹
- kcat [5]: 7,071.00 ± 1,141.00 min^−1
- Km [6]: 99.9 ± 36.6 µM
- kcat [6]: 194.30 ± 29.40 min⁻¹
- Km [7]: 308 ± 41.7 µM
- kcat [7]: 966.80 ± 96.59 min⁻¹
- Km [8]: 81 ± 12.8 µM
- kcat [8]: 335.00 ± 21.62 min⁻¹

B1: DvPMT1 (Dictyocaulus viviparus) (protein)
chain: MSQGMRHADAVIYGEYDNGRRMKENELKGEHIKNYRTTYDENSFNNTMAVEVRRDLFKTFWDRYSDKPDTNSMMLNHTANDLDASDRADILSSLPHLGNKDVVDIGAGIGRFTTVLANTARWVHSTDFIESFIAKNQERNAHLGNISYQIGDAVNLQMNERSVDLVFTNWLMMYLSDHEVIEFLFNAMRWLRPDGYLHLRESCSEPSTACSKTATMHSSAEANPTHYRFSSLYIKLLRTIRYRDNSGKLWKFDVQWSCSVPTYIQRSNNWRQVHWLTRKVPANNGDTDTSISLLLNLFSQIWPAEQVEWDLKLNIESYVWTDRVFSNAINDEVVPRNGTALVFTPRKRSPYLHVNSHLLAEKFTCNVWTVETNEYYYRTSLTKANHEKNHRVRFGWNESLTSSIDYWSQRDASFDCLISTELLSTNSDDEIKRITRMIGCGFKHVNILDVTNDSRTAEVMFYSEHSINAEPLGCTFLLISATL
- Km [9]: 35.02 ± 5.05 µM
- Vmax [9]: 0.445 µmol/min/mg
- kcat [9]: 3.96 ± 0.214 s⁻¹
- kcat/Km [9]: 113000 M⁻¹ s⁻¹

B2: TcPMT (Toxocara canis) (protein)
chain: MPRLNQKAKTFRDFLDTTQYTDEGIRAYEWIFGENFISPGGYNENLLVLKRLGELKPDSRMLDIGVGIGGGARQAAKEFGLLVLGIDISANMLSIAMDRLQVEKDTRIRYQICNAVDYQFPSNSFDYIVSRDGLHHNEHIDIVMKNIFKWLKPGGKALITIYGKGHGAPKTKFQAYVENRKYHLKTLEQMVQVTKDAGFENVQGTNLTKRLRDILIEERTRALARKGRFLEDFSEETFNSLLEGWNDKIDFIDDDNQTWLQIIATKPL
- Km [10]: 20.31 ± 2.23 µM
- Vmax [10]: 1.08 ± 0.0324 µmol/min/mg
- kcat [10]: 10.9 ± 0.327 s⁻¹
- kcat/Km [10]: 539000 M⁻¹ s⁻¹

B3: AcPMT1 (Ancylostoma duodenale) (protein)
chain: MEERSVDLVFTNWLMMYLSDREVIEFLFNAMRWLRADGYMHLRESCSEPSTGRAKSSTMHSNTDSNPTHYRFSSLYIKLLRAIRYRDNDGKVWRFDVQWSCSVPTYIKRSNNWRQVHWLTKKVSADGDDETTINDLLKLFSQTWYTEQVAWDAKLDNEKYVWTDKIFSNAIDNEVVPKNSTAYVFTPRKMSPYLHINSHLLAEKFTCNVWNVEMNENFYRTSLTKANNQKDQRVRFGWNESLASSIDYWTQRDASFDCLIGTELLSTNGDESIKRIASIMKPEAKIVLLEPVDDVAEQAIKERMASCGFKNISVVDVTEECKAAEAAYANDHNLAFLFIEL
- Km [11]: 27.33 ± 3.58 µM
- kcat/Km [11]: 1.98e+06 M⁻¹ s⁻¹

B4: OdPMT (Oesophagostomum dentatum) (protein)
chain: MIFQKRFTTVLAETARWVHSTDFIESFIAKNQERNAHLGNISYQIGDAVHLQMDEKSVDLVFTNWLMMYLSDREVIEFLFNAMRWLRADGYMHLRESCSEPSTGRSKSATMHTSAEANPTHYRFSSLYIKLLRALRYQDSDGKVWRFDVQWSCSVPTYIRFFSETWRAEQIAWDAKLDKEQYVWTDKIFSNVLDSAVVPKNSTAYVFTPRRRSPYLHVNSHLLADKFTCNVWNVELNENFYRTSLTKANNQKDQRVRFGWNETLASSIDYWTQRDGSFDCLIATELLSTSDDESIKSIASIMKPEAKCVLLEPVDEVNEAVIKARMSSCGFKNVSVMDVTEDCKAAEAAYASDHNLQIDPSNCSYVLINASL
- Km [12]: 48.95 ± 7.07 µM
- Vmax [12]: 3.13 ± 0.204 µmol/min/mg
- kcat [12]: 45.4 ± 2.96 s⁻¹
- kcat/Km [12]: 927000 M⁻¹ s⁻¹

B5: HcPMT1 (Haemonchus contortus) (protein)
chain: MTAEVRRDSFKTFWDKYSDKPDTNSMMLNQTAQDLEASDRADILSSLPHLTNKDVVDIGAGIGRFTTVLAETARWVLSTDFIESFIEKNQERNAHMGNISYQIGDAVHLQMDEKSVDLVFTNWLMMYLSDREVIEFLLNAMRWLRADGYIHLRESCSEPSTGRLKTATMHSAVDANPTHYRFSSLYIKLLRAIRYRDSDGKMWKFDVQWSCSVPTYIRRCNNWRQVHWLTKKVPAVGDEETSVDDLLNLFSQIWPAEQKTWDEKLDNEKYSWTDKIFSNAIDDEVVPKNSTAYVFTPRQRSPFLHVNSHLLAEKFTCNVWNVETKEYLYRTSLTKANNQKDQRVRFGWNESLSSSIDYWNQRDASFDCMVATELLATCDDESINSIASIMKPEAKVVLLEPVSGIDETSVRQRMTTCGFKNITIVDVTQESLNAEVSFIKDHNLDVELSGCNYLLIKASL
- Km [13]: 18.34 ± 3.80 µM
- kcat/Km [13]: 3.91e+06 M⁻¹ s⁻¹

— paper PMC10269165 (Antimicrobial Agents and Chemotherapy, 2023)
